This is an account of results in patent US20240294594A1.

pKd: −log10 of the molar value.

The target of test [1] is FcγRIIIa F158 (human) (UniProt P08637). Put plainly: SPR (Biacore 8K), receptor captured via anti-His antibody.
Another test has as its target FcγRIIb (UniProt P31994). Described as above.
Test [2] deals with FcγRIIIa V158 (human) (UniProt P08637). Described as above.
Test [3] deals with FcγRIIIa F158 (human) (UniProt P08637). In words: SPR (Biacore 8K), ratio of 1/Kd values. (Surface plasmon resonance follows binding to a sensor surface in real time, without labels.)
For test [4], the target named is FcγRIIIa V158 (human) (UniProt P08637). In words: SPR (Biacore 8K), ratio of 1/Kd values.

Sequence of FcγRIIIa V158 (human) (P08637 17-208 F176V limits assumed): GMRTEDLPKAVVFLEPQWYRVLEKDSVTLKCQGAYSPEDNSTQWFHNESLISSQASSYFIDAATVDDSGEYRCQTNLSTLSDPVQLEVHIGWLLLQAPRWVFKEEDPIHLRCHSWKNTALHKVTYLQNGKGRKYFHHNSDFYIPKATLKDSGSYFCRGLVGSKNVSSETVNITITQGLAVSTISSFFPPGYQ
Sequence of FcγRIIIa F158 (human) (P08637 17-208 limits assumed): as the sequence (P08637 17-208 F176V limits assumed) above, with V160F counted along it
Sequence of FcγRIIb (P31994 46-217 limits assumed): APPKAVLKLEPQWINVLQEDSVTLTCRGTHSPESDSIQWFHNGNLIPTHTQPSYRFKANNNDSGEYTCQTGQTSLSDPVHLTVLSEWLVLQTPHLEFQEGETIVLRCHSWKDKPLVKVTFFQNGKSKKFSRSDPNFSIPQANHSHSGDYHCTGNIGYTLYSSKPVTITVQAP

As usually defined, the pKd is the Kd on a negative log10 scale, so that one unit is a factor of ten. Turning to Zolbetuximab (antibody), the results for the negative logarithm of the Kd (pKd) with FcγRIIIa F158 (human) [1], in the test with FcγRIIb and in the test with FcγRIIIa V158 (human) [2] were 6.37, 4.86 and 7.06, respectively. The A/I (F158), affinity towards FcγRIIIa over affinity towards FcγRIIb with FcγRIIIa F158 (human) [3] came to 32.9. The A/I (V158), affinity towards FcγRIIIa over affinity towards FcγRIIb in the test with FcγRIIIa V158 (human) [4] amounted to 161.
